Consider 20 sequences from the DeepSol protein solubility set.

This series in a line: soluble on expression in E. coli; label from the status in PepcDB or PDB records.
For the sequence “MTQTNRVIIFDTTLRDGEQSPGAAMTKEEKIRVARQLEKLGVDIIEAGFAAASPGDFEAVNAIAKTITKSTVCSLSRAIERDIRQAGEAVAPAPKKRIHTFIATSPIHMEYKLKMKPKQVIEAAVKAVKIAREYTDDVEFSCEDALRSEIDFLAEICGAVIEAGATTINIPDTVGYSIPYKTEEFFRELIAKTPNGGKVVWSAHCHNDLGLAVANSLAALKGGARQVECTVNGLGERAGNASVEEIVMALKVRHDLFGLETGIDTTQIVPSSKLVSTITGYPVQPNKAIVGANAFSHESGIHQDGVLKHRETYEIMSAESVGWATNRLSLGKLSGRNAFKTKLADLGIELESEEALNAAFARFKELADKKREIFDEDLHALVSDEMGSMNAESYKFISQKISTETGEEPRADIVFSIKGEEKRASATGSGPVDAIFKAIESVAQSGAALQIYSVNAVTQGTESQGETSVRLARGNRVVNGQGADTDVLVATAKAYLSALSKLEFSAAKPKAQGSGTI”, the “soluble on expression in E. coli” value is reported as “not soluble”. In the case of “MTQTVDIENTDNVLSRRDSNAETQQMLRQRFETQPDLMPAQLASELGIAELEVVTALPQAQRVFLPLAHMDELLQSLPEWGSLTTIVMLSGSVFEFKGDFPQGKFAHGYYNLYSKGDGLHGHLKLDGMRAIALISRPFRGSESHSINFFGPQGEVVFKVYLGRDKQRVLFPDQVRRFKALAATFAD” it was “soluble”. In the case of “MTQVIIDGDACPVTNSIIELTKGTGIFVTVVRSFSHFSTVIQPEHVNIIYVDDGPDAVDYRIVKLVHSDDLVVTQDYGLASLLLNKAKIVMHHKGFIYNQENINTLLEQRHASAQFRKSGGRTKGPAAFTEEDVSKFESIFSNLIHKYFLETEDLEHHHHHH” it was “soluble”; in that of “MTQVLVRNGIQAVGDGLTSLIIVGKKSVLKNVTFEGKFKEVAQKFVTDGDSWNSMISRIPASGRHPLHYELAHLITVPDASSRGNTPTNAHSIYKELKPINYPEDTKNVHFVLFAEYPDVLSHVAAIARTFCKFSMKTSGIRELNVNIDVVCDKLTNEDAVFLTDLSESVRETARLIDTPANILTTDALVDEAVKVGNATGSKITVIRGEELLKAGFGGIYHVGKAGPTPPAFVVLSHEVPGSTEHIALVGKGVVYDTGGLQIKTKTGMPNMKRDMGGAAGMLEAYSALVKHGFSQTLHACLCIVENNVSPIANKPDDIIKMLSGKTVEINNTDAEGRLILADGVFYAKETLKATTIFDMATLTGAQAWLSGRLHGAAMTNDEQLENEIIKAGKASGDLVAPMLFAPDLFFGDLKSSIADMKNSNLGKMDGPPSAVAGLFIGAHIGFGEGLRWLHLDIAAPAEVGDRGTGYGPALFSTLLGKYTSVPMLKQ”, “soluble”; in that of “MTQWKNALSEGQLQQALELLIEAIKASPKDASLRSSFIELLCIDGDFERADEQLMQSIKLFPEYLPGASQLRHLVKAAQARKDFAQGAATAKVLGENEELTKSLVSFNLSMVSQDYEQVSELALQIEELRQEKGFLANDTSFSDVRDIDDRLGGYIELFSTAGNYFLVPIASINTLEIKSATSLLESVWRPVEFDIDGLGEGEGHMPMTYVDSESDAQKLGRETDWKQIADKEVYLGLGLKCWLVGEMALPISDLQNLQVIKELALEHHHHHH”, “soluble”. In the case of “MTRAQPEPVQVVKQRRDAALRALVSGVPYITYLGIQFDRRGDELTAVLPFDEKLIGNPMLPAIHGGVTAAFLEVASIIELSWSVLWHEMEQGRLDPDQIEARLPRLPKTIDFTVDYLRSGLPRDAYARARVNRSGRRYASVHVEAWQDNRLRPFAQATGHFLMPARNDLEHHHHHH” it was “soluble”; in that of “MTREAFAPYQCLATDLLKYLPSDQNDGSHDLAHIHRVWVNAHRIQRVEGGDLEILLAATVLHDCVAVEKHSPLRGQASTLSANKAASVLAEMGWPSGRVEQVVHAIKTHSYSAGFEPLTREACILQDSDRLDAIGAVGIARCFYVAGRMGSALYDFENPFAQQRAYQDGAYAIEHFQTKLLKLASGFKTQEGARLAAERHTRLETFLTQFMDEITGAGLEHHHHHH”, “soluble”. As for “MTRLAEILDQMSAVLNDLKTVMDQEQQHLSMGQINGSQLQWITEQKSSLLATLDYLEQLRRKEPNTANSVDISQRWQEITVKTQQLRQMNQHNGWLLEGQIERNQQALEMLKPHQEPTLYGANGQTSTTHRGGKKISILEHHHHHH”, the “soluble on expression in E. coli” value was “soluble”. Consider “MTRNGTTSLQHDEMDTTSPPSGSGSGTAPPTTATSPPDYATAATLRSTPAQMSAAITVDLVVAAQREANFLRMIDRKAPLLYEPDVVNHALRRYETFWLPMQAAHPDLNVIPPLDVHWVWHTHMLSPIHYQEDCEKLVGKIIDHKLLSSDEIQKRYDSSVRAWDSYCSAEPYDFLASQTPPTAYKTKCNYDIAGAVQRQRNFNYQVSLPHYTSAKFLSDAVKRYIQFLLLKQTYADQFLTPCYDFDIIWHTHQVHPSSYLRDCTAIFGSLLKHDDTVNDRTKGSKLLKGEALTKKLWTTHFDEPFWRRGCMFRGHNAPAFLGFESQDLACISYGDIHVPSISLKDIPVQREQLRLKLCYGNKKVTTFNADLSQKQVTKSGFSLVWQPTESSTCASIVKFPFERRAAKDLTVELEIFDKMFLQRKDLIKLIGKATLDQLLPPSNSKSAHNVAELQLKASKDSEFTAKVNVTTSVNLNRELQLLVGDFVERQLSADSHLAYLAQCASLNRGALNANSTVHIASHSMVDTRDGTKYTVQVIHSAPLLLSMILVYGREQRLLSMAHLIGADSLPSRDQLDNNLVPFLPHLSNAEERAFVILNKEGDYAIIKGKWSGFSRKQSATKGQKAKPGNPGRLHVDAFNLLKNTVQKLEVPSADGSALFLIGDAQARLPGKRIECRSTNTAEQIASIFCVATLFVLCNPDKIRSRNDSTSVGHQAHKWPLTLACGYGRQLPTNRLLLSADQDGLGGCEIAPMLMCGVGCDGAACGACGACGACGACGGCGGCGGCGGCGGCG”, for which the “soluble on expression in E. coli” value is “not soluble”. With “MTRPKLELSDDEWRQKLTPQEFHVLRRAGTERPFTGEYTDTTTAGIYQCRACGAELFRSTEKFESHCGWPSFFDPKSSDAVTLRPDHSLGMTRTEVLCANCDSHLGHVFAGEGYPTPTDKRYCINSISLRLVPGSV” the entry was “soluble”; with “MTRTELTQYLADFLRVSAFKDYAPNGLQVEGKAEIRTIVTGVTACQALIDEAIRLKADAILVHHGFFWKSEPEVITGMKQRRIKALLAHDINLFGYHLPLDAHPMLGNNATLGRKLGILDAEAVEDVAQGLVWRGKLDLPMSASEFAAMLAEVLGRDPLHIGESSDEIQYLAWCTGGAQDYIDVAASLGVDAFISGEVSERTYHSAVEQGIHYYAAGHHATERFGIEALGRHLAREFNLVHHFVDITNPVLEHHHHHH”, “soluble”. With “MTRTVSMSTAINEAMKISMRRDENVILIGEDVAGGAQVDHLQDDEAWGGVLGVTKGLVQEFGRNRILDTPISEAGYMGAAMAAAATGLRPIAELMFNDFIGSCLDQVLNQGAKFRYMFGGKAKVPVTVRTMHGAGFSAAAQHSQSLYALFTSIPGIKVVVPSTPYDAKGLLLAAIEDDDPVIFFEDKTLYNMKGEVPEGYYTIPLGKADIKREGSDVTIVAIGKQVHTALAAAEQLAKKGLEVEVIDPRSLSPLDEDTILSSVEKTNRLIVIDEANPRCSIATDIAAIVADRGFDLLDAPIKRITAPHTPVPFSPPLEKLYLPTPEKVIETVSEMIGDQSLLHV” the entry was “not soluble”; with “MTSAYFGVAGGGNAGAQSAYFGVGGGPAGGGGGNKSAGGGGAPPPGVSCYLGAGAGGAASGSQSAYFGVGGGPVGGGGGGGAPPAASNDAGYFATPPAAPAGGSSTMTAVGGAPRGASTMTAVGGAPVGGSSTMTAVGGAPSGASTMTAIGGAPRGASTMTAVGGAPMGGGSTMTAVGGAPSGASTMTAVGGAPSGASTMTAIGGAPRGASTMTAVGGAPMGGSSTMTAVGGAPIGGSSTMTAVGGAPRGASTMTAVGGAPGGASTMTAMGGGPSAFGGAPPPPSGSAMGGGGGGGATSAYFGVGSGAMGGGGAGAQSAYFGVGGGPVGGGGGGAKSGGGGGGIPGQSVYMGAGGGGGGGGGGGATSAYFAPR”, “not soluble”; with “MTSDTIRQTLDELLLDKNGGSSNEARAFFLSQIIDQLKLISSQTDAERQLQKLQLKDPNDNIVKATPPPPPPPPPLISILQQAPPPPPPPPPPTLKAPPPPPILGLKTPSKSLKTPTPRPKECPTSFLPKKEKKTKTRTVQWSKINASVVQDDSVWGKLAKASNVDIDFDLLDNFFGIESLAVSGAAEVVKVGILRALGKNYKKISKKIFNPKKHFFFLLKISNSLNFQKSTRKDAHVELLTAKRSQNVAIMLKQFKNIDELIDDVSQNKPVAEIDALQNLFGMLPQSEEEEALRRYTGDISLLSPPSSFFYRLVQIQFYRLRIETQIFLSDFSRLMRELAPNVEILIRTSQEILTSPTLPRLLLIFVNMGNYLNGNNSQGNAFGFTLNSLWKLIDLKGNKQEFSLLHLLVTCEPDLVAHLQEELSTLKDASQISFDEIKISLKTLRDGRCKLEKQLETCSGASFTQFLELIKIDCKFELDEFGANYDKLTELQYQLADYFCENRNTFQLDECLKIFNFLMNRLQQTLKEHVTRETRKLKKEEKKETQTTRECEKTMKKPEKIDLFDALTASNGGPESPRKRAAGILDMRQKLGNVRIRKLRDVTTLESSFTPPPPPPLESPTDSTSSKENESVKPAKTSTNYEMCNDLESYITSLTRKRASHLPKAPPKEEPKLPEVLPEKSKIALKIEKIPEKIDKPPLPQAAPIIPKLPQKSIKAPSTVTTRSKVPPPTAAAAVRIVSVTTTTTPTKTAELRKPGARSPKTTVATVPKVTVVPVSRVPVAPSTPLSRRMSAPVVRKPTMTAEKKREITMKPSVSTSARPSLINTSSHPMVRSPLPKMSVLEKPKPLRITRPTVIPQSPTVTSSARPSGLRQPAKPKWV”, “not soluble”. With “MTSGANSSGSYLPSEIRSSKIDDNYLKELNEDLKLRKQELLEMLKPLEDKNNLLFQKLMSNLEEKQRSLQIMRQIMAGKGCEESSVMELLKEAEEMKQNLERKNKMLRKEMEMLWNKTFEAEELSDQQKAPQTKNKADLQDGKEKQQRKMEWVKYQEQNNILQNDFHGKVIELRIEALKNYQKANDLKLSLYLQQNFEPMQAFLNLPGSQGIRIV” the entry was “not soluble”. For the sequence “MTSGLERLSNLLSKKDSVFVSDLLREAKVNELDETLSTTRLNHLIDKGYERITLQLDLGGESPGYLEKDKHYREADAALLNVIYPTNLSKINTRRKEQV”, the “soluble on expression in E. coli” value is “not soluble”. Turning to “MTSIRKWQVGESLPEVTLAPVSRLDLIKYAGASGDYNPIHTIDEEAKKAGLPGIIAHGMWTMGNLAKLFTPYYEEGFVQDYFVRFQSMVFLNDVITLKATVKEKDKKAIRFAVAAVNQHGKEVIKGEAVFSLYE”, the “soluble on expression in E. coli” value is on record as “not soluble”. As for “MTSSNEKLPKINHDNEVFALLYKILSSEVQTIKGEDNEKVNQLRVDITISEISQLTDKMKKAFLEQPALLEISNEPITVVADMHGQSIHLLRIFLTNEAPPNQKYLFLGDYVDRGSQSVVVMCLLFCMKHRYPQHVFLLRGNHEDVNTTLNYGFYDECLEQWKNDEGEKVWRMFIDTFNCMPLAAVIGGKVFCAHGGISPWLESLEDINSIERPLVVPPYGLACDLLWSDPAQPERNGWGLSHRGISFTYGKSVVEEFCAKNDIALVIRGHQLFKEMYPQGCVLRFGGRLISLFSALNYEGHKNNSSVLKLEFVGQRVKVKQVLYRCRHYAPLRSNEYLGFRDMKSSSGKNEKRKKGRLESLLG”, the “soluble on expression in E. coli” value was “not soluble”. In the case of “MTSVGVPIKILHEAEGHMVTLETVTGEVYRGKLSEAEDNMNCQLAETVVTFRDGRSHQLDNVFIRGNKIRFMILPDMLKNAPMFKNIGRAQKGAIGMGLGGLDQRGRGRGTAFRRPMGRGGPRGMSRPGGAPTFRG” it was “not soluble”; in that of “MTSVNLSYPIGEYKPRESISKEQKDKWIQVLEEVPAKLKQAVEVMTDSQLDTPYRDGGWTVRQVVHHLADSHMNSYIRFKLSLTEETPAIRPYDEKAWSELKDSKTADPSGSLALLQELHGRWTALLRTLTDQQFKRGFYHPDTKEIITLENALGLYVWHSHHHIAHITELSRRMGWS”, “soluble”.
